Where a chain is given by its changes, count along the chain named.
T1: ST1710 (Sulfurisphaera tokodaii, UniProt Q96ZY1)
T1 sequence (Q96ZY1 1-146): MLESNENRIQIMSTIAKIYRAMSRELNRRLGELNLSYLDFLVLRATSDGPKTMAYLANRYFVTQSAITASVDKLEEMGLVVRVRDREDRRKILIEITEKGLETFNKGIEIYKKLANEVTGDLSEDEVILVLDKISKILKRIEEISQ

T2: ST1710 (Sulfolobus tokodaii strain 7, UniProt Q96ZY1 1-146)
T2 sequence: T1 sequence (Q96ZY1 1-146)

T3: ST1710 K91A (Sulfolobus tokodaii strain 7, UniProt Q96ZY1 1-146, K91A)
T3 sequence: T1 sequence (Q96ZY1 1-146) with K91A

T4: ST1710 R90A (Sulfolobus tokodaii strain 7, UniProt Q96ZY1 1-146, R90A)
T4 sequence: T1 sequence (Q96ZY1 1-146) with R90A

T5: ST1710 R89A (Sulfolobus tokodaii strain 7, UniProt Q96ZY1 1-146, R89A)
T5 sequence: T1 sequence (Q96ZY1 1-146) with R89A

B1: 30-mer putative st1710 promoter duplex (dsDNA)
DNA 1: AATAATGTCATTGTTAACAATAGCAAAAAT
DNA 2: ATTTTTGCTATTGTTAACAATGACATTATT

Columns and labels:
ST1710 [1] = target: T1, ST1710; experiment: differential scanning calorimetry; assay type: binding
ST1710 [2] = target: T2, ST1710; experiment: crystal structure
ST1710 K91A = target: T3, ST1710 K91A; experiment: EMSA
ST1710 R90A = target: T4, ST1710 R90A; experiment: EMSA
ST1710 R89A = target: T5, ST1710 R89A; experiment: EMSA

Molecule	Kd (ST1710 [1]) [mM]	binding result (ST1710 [2])	binding result (ST1710 K91A)	binding result (ST1710 R90A)	binding result (ST1710 R89A)
O=C(O)c1ccccc1O [sodium salicylate]	20 ± 4.9				
B1		binds	no binding	no binding	no binding
